Experimental data published in article PMC9082627.

Target: STX17-Flag (UniProt P56962)
Assay: co-IP

reduction of the co-immunoprecipitated interaction against STING WT: 50%
Substance: STING-HA C148A (from UniProt Q86WV6 1-379) (natural protein)
